Results from article doi:10.1101/2020.02.12.946020.

Target: hMutLγ (MLH1-MLH3) (human, UniProt P40692;Q9UHC1 1-756;1-1453)
Assay: EMSA

Sequence of hMutLγ (MLH1-MLH3) (P40692 whole entry, chain 1 of 2): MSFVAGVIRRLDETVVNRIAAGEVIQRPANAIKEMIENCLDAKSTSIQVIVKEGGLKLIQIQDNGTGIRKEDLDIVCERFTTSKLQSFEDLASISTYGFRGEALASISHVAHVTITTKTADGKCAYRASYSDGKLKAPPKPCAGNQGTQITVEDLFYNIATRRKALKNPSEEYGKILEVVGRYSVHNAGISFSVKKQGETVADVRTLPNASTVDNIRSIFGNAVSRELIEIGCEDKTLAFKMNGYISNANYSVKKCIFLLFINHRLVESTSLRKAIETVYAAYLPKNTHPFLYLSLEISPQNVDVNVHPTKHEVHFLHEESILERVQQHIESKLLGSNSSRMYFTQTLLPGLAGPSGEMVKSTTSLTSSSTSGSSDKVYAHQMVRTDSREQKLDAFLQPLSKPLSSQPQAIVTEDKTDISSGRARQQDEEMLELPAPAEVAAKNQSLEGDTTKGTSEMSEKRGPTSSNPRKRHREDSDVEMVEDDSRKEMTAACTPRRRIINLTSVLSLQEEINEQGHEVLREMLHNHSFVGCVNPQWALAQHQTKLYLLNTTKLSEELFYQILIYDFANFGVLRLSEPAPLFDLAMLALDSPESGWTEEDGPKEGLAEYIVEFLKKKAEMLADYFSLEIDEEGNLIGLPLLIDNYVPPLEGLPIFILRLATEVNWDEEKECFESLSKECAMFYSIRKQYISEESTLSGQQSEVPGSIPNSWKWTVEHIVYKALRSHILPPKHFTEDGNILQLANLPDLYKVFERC
Sequence of hMutLγ (MLH1-MLH3) (Q9UHC1 whole entry, chain 2 of 2): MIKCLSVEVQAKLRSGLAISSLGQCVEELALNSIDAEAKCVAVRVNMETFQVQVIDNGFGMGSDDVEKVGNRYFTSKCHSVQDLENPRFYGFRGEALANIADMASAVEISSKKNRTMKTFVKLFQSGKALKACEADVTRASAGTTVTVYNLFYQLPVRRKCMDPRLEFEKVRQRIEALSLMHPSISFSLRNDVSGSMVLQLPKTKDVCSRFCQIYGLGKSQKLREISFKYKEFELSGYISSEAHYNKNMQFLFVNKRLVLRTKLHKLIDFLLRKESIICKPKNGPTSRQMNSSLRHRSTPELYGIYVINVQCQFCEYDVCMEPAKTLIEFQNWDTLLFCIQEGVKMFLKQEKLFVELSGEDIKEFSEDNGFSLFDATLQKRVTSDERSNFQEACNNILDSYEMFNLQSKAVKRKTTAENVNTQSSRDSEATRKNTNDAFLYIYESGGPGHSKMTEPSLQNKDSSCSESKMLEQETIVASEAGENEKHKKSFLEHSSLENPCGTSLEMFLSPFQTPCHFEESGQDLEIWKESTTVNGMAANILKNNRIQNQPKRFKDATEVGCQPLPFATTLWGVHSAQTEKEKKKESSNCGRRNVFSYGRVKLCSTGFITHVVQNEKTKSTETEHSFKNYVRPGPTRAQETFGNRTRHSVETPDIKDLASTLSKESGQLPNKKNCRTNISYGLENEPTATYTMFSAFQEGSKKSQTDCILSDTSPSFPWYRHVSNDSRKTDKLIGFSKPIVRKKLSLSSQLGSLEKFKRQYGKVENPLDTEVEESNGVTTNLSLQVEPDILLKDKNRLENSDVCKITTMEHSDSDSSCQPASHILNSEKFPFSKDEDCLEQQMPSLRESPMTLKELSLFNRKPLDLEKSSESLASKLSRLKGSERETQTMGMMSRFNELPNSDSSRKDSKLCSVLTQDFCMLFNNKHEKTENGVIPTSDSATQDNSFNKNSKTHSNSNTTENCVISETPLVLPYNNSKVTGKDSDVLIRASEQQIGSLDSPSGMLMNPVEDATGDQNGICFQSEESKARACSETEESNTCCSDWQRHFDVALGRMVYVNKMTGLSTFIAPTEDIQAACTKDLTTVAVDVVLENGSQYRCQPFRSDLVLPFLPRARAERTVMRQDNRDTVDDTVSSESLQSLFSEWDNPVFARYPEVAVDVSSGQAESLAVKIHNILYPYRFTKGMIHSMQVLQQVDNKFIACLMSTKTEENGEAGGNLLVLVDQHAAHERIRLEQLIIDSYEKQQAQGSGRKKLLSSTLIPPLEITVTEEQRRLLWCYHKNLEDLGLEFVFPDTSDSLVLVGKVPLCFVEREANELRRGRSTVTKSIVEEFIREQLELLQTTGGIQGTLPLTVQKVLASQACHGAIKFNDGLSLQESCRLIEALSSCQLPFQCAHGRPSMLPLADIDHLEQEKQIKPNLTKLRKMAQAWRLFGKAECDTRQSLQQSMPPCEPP

Binder: TTTTTTTTTTTTTTTTTTTTTTTTTTTTTTTTTTTTTTTT (ssDNA) [40 nt poly-dT ssDNA (dT40)]
- binding result: binds
